Test results as given in the supplement of paper PMC9112550, “Optimization of the antimicrobial peptide Bac7 by deep mutational scanning” (BMC Biology, 2022).
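Note: peptides expressed intracellularly from a pBAD plasmid library in pooled LB shake-flask culture, induced with 0.3% L-arabinose, DNA abundance read by NGS, three biological replicates, DESeq2 with apeglm shrinkage.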

These sequences were tested on Escherichia coli TOP10 (assay: shrunken log2 fold change of peptide-encoding DNA abundance (4.5 h post-induction vs induction); higher = less antimicrobial activity (less host growth inhibition)). Conditions: time post-induction: 4.5 h; library: site-saturation at positions 5, 18, 19, 20.
With RRIRFRPPRLPRPRPRPANQPRP the “shrunken log2 fold change” value was -0.165. With RRIRGRPPRLPRPRPRPKNHPRP the “shrunken log2 fold change” value was 0.179. With RRIRYRPPRLPRPRPRPHKKPRP the “shrunken log2 fold change” value was -0.0787. In the case of RRIRNRPPRLPRPRPRPTKEPRP, the “shrunken log2 fold change” value is reported as -0.0307. With RRIRFRPPRLPRPRPRPNWTPRP the “shrunken log2 fold change” value was -0.00237. With RRIRDRPPRLPRPRPRPIADPRP the “shrunken log2 fold change” value was 0.163. For RRIRCRPPRLPRPRPRPESCPRP, the “shrunken log2 fold change” value was -0.0297. In the case of RRIRDRPPRLPRPRPRPNCTPRP, the “shrunken log2 fold change” value is reported as 0.476. RRIRGRPPRLPRPRPRPPECPRP was tested, and the “shrunken log2 fold change” value was 0.483. In the case of RRIRNRPPRLPRPRPRPNEEPRP, the “shrunken log2 fold change” value is reported as -0.00613. For RRIRGRPPRLPRPRPRPTIEPRP, the “shrunken log2 fold change” value was 0.673. For RRIRGRPPRLPRPRPRPKMYPRP, the “shrunken log2 fold change” value was 0.107. For RRIRMRPPRLPRPRPRPMIHPRP, the “shrunken log2 fold change” value was -0.106. RRIRIRPPRLPRPRPRPAQHPRP was tested, and the “shrunken log2 fold change” value was -0.0384. RRIRWRPPRLPRPRPRPIKSPRP was tested, and the “shrunken log2 fold change” value was 0.0589. For RRIRERPPRLPRPRPRPPWHPRP, the “shrunken log2 fold change” value was -0.0644. For RRIRDRPPRLPRPRPRPSQVPRP, the “shrunken log2 fold change” value was -0.426. In the case of RRIRIRPPRLPRPRPRPPPKPRP, the “shrunken log2 fold change” value is reported as 0.46. RRIRARPPRLPRPRPRPVASPRP was tested, and the “shrunken log2 fold change” value was 0.595. RRIRDRPPRLPRPRPRPCTMPRP was tested, and the “shrunken log2 fold change” value was -0.0909. In the case of RRIRYRPPRLPRPRPRPGDIPRP, the “shrunken log2 fold change” value is reported as -0.0107. With RRIRYRPPRLPRPRPRPMYIPRP the “shrunken log2 fold change” value was -0.0194. In the case of RRIRGRPPRLPRPRPRPYHYPRP, the “shrunken log2 fold change” value is reported as -0.149. For RRIRMRPPRLPRPRPRPIVNPRP, the “shrunken log2 fold change” value was -0.0202. In the case of RRIRSRPPRLPRPRPRPGVNPRP, the “shrunken log2 fold change” value is reported as -0.398. For RRIRIRPPRLPRPRPRPVHNPRP, the “shrunken log2 fold change” value was -0.357. With RRIRLRPPRLPRPRPRPMDDPRP the “shrunken log2 fold change” value was -0.117. With RRIRCRPPRLPRPRPRPNCWPRP the “shrunken log2 fold change” value was 0.078. In the case of RRIRVRPPRLPRPRPRPRLWPRP, the “shrunken log2 fold change” value is reported as 0.45. With RRIRNRPPRLPRPRPRPGEGPRP the “shrunken log2 fold change” value was 0.196. RRIRQRPPRLPRPRPRPPEVPRP was tested, and the “shrunken log2 fold change” value was 0.0121. RRIRIRPPRLPRPRPRPGFAPRP was tested, and the “shrunken log2 fold change” value was 0.282. RRIRQRPPRLPRPRPRPKKYPRP was tested, and the “shrunken log2 fold change” value was -0.0221. With RRIRQRPPRLPRPRPRPVPAPRP the “shrunken log2 fold change” value was 0.475. RRIRWRPPRLPRPRPRPYAKPRP was tested, and the “shrunken log2 fold change” value was -0.41. For RRIRKRPPRLPRPRPRPREKPRP, the “shrunken log2 fold change” value was -0.107. RRIRWRPPRLPRPRPRPQDNPRP was tested, and the “shrunken log2 fold change” value was -0.421. For RRIRMRPPRLPRPRPRPFCEPRP, the “shrunken log2 fold change” value was 0.148. With RRIRTRPPRLPRPRPRPLGGPRP the “shrunken log2 fold change” value was 0.137. With RRIRGRPPRLPRPRPRPANMPRP the “shrunken log2 fold change” value was -0.139. With RRIRNRPPRLPRPRPRPYWRPRP the “shrunken log2 fold change” value was -0.312. RRIRMRPPRLPRPRPRPILWPRP was tested, and the “shrunken log2 fold change” value was 0.00288. For RRIRERPPRLPRPRPRPMIKPRP, the “shrunken log2 fold change” value was -1.07. With RRIRTRPPRLPRPRPRPKAIPRP the “shrunken log2 fold change” value was 0.00211. RRIRFRPPRLPRPRPRPACHPRP was tested, and the “shrunken log2 fold change” value was -0.0466. With RRIRRRPPRLPRPRPRPRNPPRP the “shrunken log2 fold change” value was 0.345. For RRIRDRPPRLPRPRPRPAYHPRP, the “shrunken log2 fold change” value was -0.263. With RRIRRRPPRLPRPRPRPNLAPRP the “shrunken log2 fold change” value was 0.176. For RRIRQRPPRLPRPRPRPYDLPRP, the “shrunken log2 fold change” value was -0.0546. In the case of RRIRCRPPRLPRPRPRPRCHPRP, the “shrunken log2 fold change” value is reported as 0.0572. RRIRCRPPRLPRPRPRPEKDPRP was tested, and the “shrunken log2 fold change” value was -0.0681. With RRIRWRPPRLPRPRPRPSARPRP the “shrunken log2 fold change” value was 0.54. RRIRNRPPRLPRPRPRPLWKPRP was tested, and the “shrunken log2 fold change” value was -0.422. In the case of RRIRVRPPRLPRPRPRPFPPPRP, the “shrunken log2 fold change” value is reported as -0.0462. RRIRFRPPRLPRPRPRPCYQPRP was tested, and the “shrunken log2 fold change” value was -0.229. With RRIRIRPPRLPRPRPRPCELPRP the “shrunken log2 fold change” value was -0.254. In the case of RRIRHRPPRLPRPRPRPTHDPRP, the “shrunken log2 fold change” value is reported as 0.124. With RRIRARPPRLPRPRPRPYTHPRP the “shrunken log2 fold change” value was -0.373. In the case of RRIRHRPPRLPRPRPRPGFFPRP, the “shrunken log2 fold change” value is reported as 0.0196. In the case of RRIRARPPRLPRPRPRPNENPRP, the “shrunken log2 fold change” value is reported as 0.177. In the case of RRIRERPPRLPRPRPRPWPTPRP, the “shrunken log2 fold change” value is reported as 0.549. In the case of RRIRPRPPRLPRPRPRPEPNPRP, the “shrunken log2 fold change” value is reported as 0.293. With RRIRSRPPRLPRPRPRPASYPRP the “shrunken log2 fold change” value was 0.102. For RRIRYRPPRLPRPRPRPDWWPRP, the “shrunken log2 fold change” value was 0.0124. In the case of RRIRFRPPRLPRPRPRPAFVPRP, the “shrunken log2 fold change” value is reported as -0.028. RRIRKRPPRLPRPRPRPFHTPRP was tested, and the “shrunken log2 fold change” value was -0.0289. RRIRLRPPRLPRPRPRPFFDPRP was tested, and the “shrunken log2 fold change” value was -0.0987. For RRIRLRPPRLPRPRPRPQWNPRP, the “shrunken log2 fold change” value was -0.289. RRIRWRPPRLPRPRPRPPLVPRP was tested, and the “shrunken log2 fold change” value was 0.443. In the case of RRIRIRPPRLPRPRPRPFVVPRP, the “shrunken log2 fold change” value is reported as -0.235. For RRIRRRPPRLPRPRPRPYWSPRP, the “shrunken log2 fold change” value was -0.353. With RRIRWRPPRLPRPRPRPICFPRP the “shrunken log2 fold change” value was 0.135. For RRIRRRPPRLPRPRPRPHVLPRP, the “shrunken log2 fold change” value was 0.0842. With RRIRKRPPRLPRPRPRPYNTPRP the “shrunken log2 fold change” value was -0.339. In the case of RRIRSRPPRLPRPRPRPILQPRP, the “shrunken log2 fold change” value is reported as 0.0824. With RRIRWRPPRLPRPRPRPYMYPRP the “shrunken log2 fold change” value was -0.848. In the case of RRIRKRPPRLPRPRPRPNEVPRP, the “shrunken log2 fold change” value is reported as -0.152. RRIRVRPPRLPRPRPRPFNMPRP was tested, and the “shrunken log2 fold change” value was -0.19. RRIRYRPPRLPRPRPRPYGNPRP was tested, and the “shrunken log2 fold change” value was -0.00695. RRIRFRPPRLPRPRPRPKITPRP was tested, and the “shrunken log2 fold change” value was -0.448. In the case of RRIRHRPPRLPRPRPRPTLPPRP, the “shrunken log2 fold change” value is reported as -0.00384. In the case of RRIRHRPPRLPRPRPRPAQLPRP, the “shrunken log2 fold change” value is reported as -0.3. In the case of RRIRIRPPRLPRPRPRPPGKPRP, the “shrunken log2 fold change” value is reported as 0.324. In the case of RRIRCRPPRLPRPRPRPHEVPRP, the “shrunken log2 fold change” value is reported as 0.104. With RRIRQRPPRLPRPRPRPHKTPRP the “shrunken log2 fold change” value was -0.146. In the case of RRIRSRPPRLPRPRPRPYVEPRP, the “shrunken log2 fold change” value is reported as -0.442. In the case of RRIRARPPRLPRPRPRPNIVPRP, the “shrunken log2 fold change” value is reported as 0.0466. For RRIRWRPPRLPRPRPRPDMLPRP, the “shrunken log2 fold change” value was 0.142. RRIRRRPPRLPRPRPRPGNGPRP was tested, and the “shrunken log2 fold change” value was 0.372. For RRIRPRPPRLPRPRPRPENYPRP, the “shrunken log2 fold change” value was -0.283. With RRIRSRPPRLPRPRPRPNTKPRP the “shrunken log2 fold change” value was -0.259. With RRIRPRPPRLPRPRPRPAADPRP the “shrunken log2 fold change” value was 0.282. With RRIRSRPPRLPRPRPRPDGYPRP the “shrunken log2 fold change” value was -0.164. In the case of RRIRDRPPRLPRPRPRPKLFPRP, the “shrunken log2 fold change” value is reported as 0.168. RRIRWRPPRLPRPRPRPIMSPRP was tested, and the “shrunken log2 fold change” value was -0.161. RRIRARPPRLPRPRPRPNSWPRP was tested, and the “shrunken log2 fold change” value was 0.422. RRIRERPPRLPRPRPRPMTIPRP was tested, and the “shrunken log2 fold change” value was -0.155. In the case of RRIRKRPPRLPRPRPRPWVWPRP, the “shrunken log2 fold change” value is reported as 0.445. For RRIRDRPPRLPRPRPRPMFVPRP, the “shrunken log2 fold change” value was -0.0355. For RRIRCRPPRLPRPRPRPFWKPRP, the “shrunken log2 fold change” value was -0.271. In the case of RRIRMRPPRLPRPRPRPFRYPRP, the “shrunken log2 fold change” value is reported as 0.0191. RRIRQRPPRLPRPRPRPLSDPRP was tested, and the “shrunken log2 fold change” value was -0.0651. RRIRVRPPRLPRPRPRPMVYPRP was tested, and the “shrunken log2 fold change” value was -0.17. RRIRDRPPRLPRPRPRPPQDPRP was tested, and the “shrunken log2 fold change” value was 0.811. In the case of RRIRIRPPRLPRPRPRPTAYPRP, the “shrunken log2 fold change” value is reported as -0.425. With RRIRNRPPRLPRPRPRPAKFPRP the “shrunken log2 fold change” value was -0.179. In the case of RRIRIRPPRLPRPRPRPRKYPRP, the “shrunken log2 fold change” value is reported as -0.561. RRIRWRPPRLPRPRPRPIIKPRP was tested, and the “shrunken log2 fold change” value was -0.312. With RRIRLRPPRLPRPRPRPCCMPRP the “shrunken log2 fold change” value was -0.408. RRIRFRPPRLPRPRPRPSSDPRP was tested, and the “shrunken log2 fold change” value was -0.286. With RRIRMRPPRLPRPRPRPNYMPRP the “shrunken log2 fold change” value was 1.06. With RRIRARPPRLPRPRPRPNNWPRP the “shrunken log2 fold change” value was 0.0825. In the case of RRIRRRPPRLPRPRPRPKWKPRP, the “shrunken log2 fold change” value is reported as -0.0205. With RRIRTRPPRLPRPRPRPYLSPRP the “shrunken log2 fold change” value was 0.0138. RRIRGRPPRLPRPRPRPYSKPRP was tested, and the “shrunken log2 fold change” value was -0.2. RRIRERPPRLPRPRPRPDQDPRP was tested, and the “shrunken log2 fold change” value was -0.00875. For RRIRGRPPRLPRPRPRPSSPPRP, the “shrunken log2 fold change” value was -0.0496. RRIRCRPPRLPRPRPRPMQNPRP was tested, and the “shrunken log2 fold change” value was 0.311. RRIRCRPPRLPRPRPRPELGPRP was tested, and the “shrunken log2 fold change” value was 0.211. RRIRSRPPRLPRPRPRPTRCPRP was tested, and the “shrunken log2 fold change” value was 0.264. For RRIRSRPPRLPRPRPRPDPFPRP, the “shrunken log2 fold change” value was -0.214. RRIRGRPPRLPRPRPRPYPFPRP was tested, and the “shrunken log2 fold change” value was -0.164. In the case of RRIRERPPRLPRPRPRPIVMPRP, the “shrunken log2 fold change” value is reported as -0.86. In the case of RRIRLRPPRLPRPRPRPPAYPRP, the “shrunken log2 fold change” value is reported as 0.0545. RRIRGRPPRLPRPRPRPYQSPRP was tested, and the “shrunken log2 fold change” value was 0.00308.
